Assays:
[1] = biological target: human FcRn/B2 microglobulin; test: SPR; pH 6.0
FcγRIV = test: SPR; mouse FcγR
FcγRIIb [2] = test: SPR; mouse FcγR
FcγRI [3] = test: SPR; mouse FcγR
FcγRIII [4] = test: SPR; mouse FcγR
FcγRIIIa V = test: SPR; human FcγRIIIa V157
FcγRIIa = test: SPR; rhesus FcγR
FcγRIIb [5] = test: SPR; rhesus FcγR
FcγRI [6] = test: SPR; rhesus FcγR
FcγRIII [7] = test: SPR; rhesus FcγR
FcγRIIa R = test: SPR; human FcγRIIa R131
FcγRIIa H = test: SPR; human FcγRIIa H131
FcγRIIIa F = test: SPR; human FcγRIIIa F157

Kd [1] [nM] | Kd (FcγRIV) [nM] | Kd (FcγRIIb [2]) [nM] | Kd (FcγRI [3]) [nM] | Kd (FcγRIII [4]) [nM] | Kd (FcγRIIIa V) [nM] | Kd (FcγRIIa) [nM] | Kd (FcγRIIb [5]) [nM] | Kd (FcγRI [6]) [nM] | Kd (FcγRIII [7]) [nM] | Kd (FcγRIIa R) [nM] | Kd (FcγRIIa H) [nM] | Kd (FcγRIIIa F) [nM] | Substance
12.7 | – | – | – | – | – | – | – | – | – | – | – | – | SDIE LS-
1.99 | – | – | – | – | – | – | – | – | – | – | – | – | GAIE LS+
19.9 | – | – | – | – | – | – | – | – | – | – | – | – | GAALIE LS-
20.1 | – | – | – | – | – | – | – | – | – | – | – | – | GAIE LS-
– | 207 | 1620 | 440 | 2380 | 131 | 9100 | 6920 | 0.457 | 91.2 | 819 | 622 | 164 | GAALIE
1.19 | – | – | – | – | – | – | – | – | – | – | – | – | SDIE LS+
– | 258 | 1150 | 212 | 2520 | 130 | 1400 | 1100 | 0.51 | 87.6 | 204 | 249 | 162 | GAIE
– | 8.56 | 398 | 14.1 | 1080 | 29.6 | 685 | 540 | 0.441 | 30 | 354 | 769 | 47.5 | SDIE
1.4 | – | – | – | – | – | – | – | – | – | – | – | – | GAALIE LS+

Source: US20250171558A1
